Experimental findings from publication PMC4219717 are described below.

The target in test [1] is GST-AHSP^WT (human) (UniProt Q9NZD4).
Test [2] has as its target GST-α-Hb^WT (human).
The target of test [3] is GST-α-Hb1-117 (human).
Test [4] concerns the target GST-α-Hb1-126 (human).
For test [5], the target named is GST-α-Hb1-138 (human).
Test [6] deals with GST-α-Hb1-134 (human).

Sequence of UniProt Q9NZD4 (Q9NZD4 whole entry): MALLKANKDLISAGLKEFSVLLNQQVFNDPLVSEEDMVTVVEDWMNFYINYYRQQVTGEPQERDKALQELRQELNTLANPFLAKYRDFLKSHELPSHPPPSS

Regarding GST-α-Hb1-117 (domain or fragment), the CO recombination kinetics after flash photolysis of the GST-AHSP^WT/GST-α-Hb complex: fraction of the intermediate (I) phase in test [1] amounted to 20 % I phase. As for GST-α-Hb1-126 (domain or fragment), the CO recombination kinetics after flash photolysis of the GST-AHSP^WT/GST-α-Hb complex: fraction of the intermediate (I) phase in test [1] amounted to 19 % I phase.

For the substance GST-α-Hb1-134 (domain or fragment), in test [1], the CO recombination kinetics after flash photolysis of the GST-AHSP^WT/GST-α-Hb complex: fraction of the intermediate (I) phase is 10 % I phase. With GST-α-Hb1-138 (domain or fragment), in test [1], the CO recombination kinetics after flash photolysis of the GST-AHSP^WT/GST-α-Hb complex: fraction of the rapid (R) phase was 97 % R phase. Take GST-α-Hb^WT (natural protein): the CO recombination kinetics after flash photolysis of the GST-AHSP^WT/GST-α-Hb complex: fraction of the intermediate (I) phase in test [1] stood at 100 % I phase. Regarding native α-Hb (natural protein), the CO recombination kinetics after flash photolysis of the complex: fraction of the intermediate (I) phase in test [1] is 100 % I phase.

native β-Hb (natural protein): the CO recombination kinetics after addition of β-Hb and 1 mM IHP to the GST-AHSP^WT/GST-α-Hb^WT complex: fraction of the slow (T) phase in test [2] was found to be 32 % T phase. Besides, the CO recombination kinetics after addition of β-Hb and 1 mM IHP to the GST-AHSP^WT/GST-α-Hb complex: fraction of the rapid (R) phase in test [3] turned out to be 88 % R phase; in test [4], 80 % R phase; in test [5], 95 % R phase; in test [6], 84 % R phase.
